In patent publication US20220411504A1 (Janssen / Centocor, published 2022):
Where a chain is given by its changes, count along the chain named. Each block holds one binder with its values, some of them ahead of it.

Columns and labels:
[1] = target: T1, HLA-G on cells (K562-HLA-G and HLA-G expressing tumor cells) (human); test: cell-based or functional assay
[2] = target: T1, HLA-G on cells (K562-HLA-G and HLA-G …); test: flow cytometry, IgG1 mAb on cells expressing HLA-G
[3] = target: T2, MHGW8 (B2m-3(G4S)-HLA-G1-G4S-Avi) (human, biotinylated (Avi tag) in the blocking assay); test: flow cytometry competition: blocks MHGW8-dextramer binding to ILT4 on HEK293T cells (competitor ILT4)
T2 construct: Single chain β2m-HLA-G1; also called soluble HLA-G1 extracellular domain; recombinant biotinylated HLA-G1

[4] = target: T2, MHGW8 (B2m-3(G4S)-HLA-G1-G4S-Avi); test: SPR, mAb captured by goat anti-human Fc, MHGW8 flowed
[5] = target: T3, Human CD3 epsilon (CD3ε) of the T cell receptor complex on cells (human, UniProt P07766 23-207); test: flow cytometry, E. coli supernatant on human T cells
T3 construct: On Jurkat cells and primary human (pan) T cells; also called T-cell surface glycoprotein CD3 epsilon chain; T3E
T3 sequence (P07766 23-207 limits assumed, one chain of several): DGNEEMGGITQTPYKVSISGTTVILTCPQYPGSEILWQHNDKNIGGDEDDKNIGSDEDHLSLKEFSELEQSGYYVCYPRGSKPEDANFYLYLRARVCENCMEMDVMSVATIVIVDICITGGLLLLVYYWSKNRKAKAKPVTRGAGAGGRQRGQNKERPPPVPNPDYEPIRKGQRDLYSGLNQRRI

[6] = target: T4, CD3W147 (homodimeric CD3εγ-Fc) (human, biotinylated); test: ELISA, E. coli supernatant (heated to 60° C., cooled) on biotinylated CD3W147
T4 construct: also called recombinant CD3
T4 chain: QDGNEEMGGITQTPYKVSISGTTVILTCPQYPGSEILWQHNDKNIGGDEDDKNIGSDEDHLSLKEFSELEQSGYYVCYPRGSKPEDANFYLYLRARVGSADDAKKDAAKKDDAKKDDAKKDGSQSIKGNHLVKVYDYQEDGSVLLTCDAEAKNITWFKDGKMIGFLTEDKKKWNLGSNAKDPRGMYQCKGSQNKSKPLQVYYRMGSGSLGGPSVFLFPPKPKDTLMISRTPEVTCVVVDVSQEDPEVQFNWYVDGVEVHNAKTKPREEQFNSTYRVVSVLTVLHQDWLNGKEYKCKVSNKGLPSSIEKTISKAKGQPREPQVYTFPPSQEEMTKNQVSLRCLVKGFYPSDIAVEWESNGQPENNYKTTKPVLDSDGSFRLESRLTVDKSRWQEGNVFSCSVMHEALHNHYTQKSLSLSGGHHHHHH

[7] = target: T2, MHGW8 (B2m-3(G4S)-HLA-G1-G4S-Avi); test: flow cytometry competition: blocks MHGW8-dextramer binding to ILT2 on HEK293T cells (competitor ILT2)

B1: HC3B238 (bispecific antibody, human IgG1, kappa, L234A L235A)
scFv: EVQLVESGGGLVKPGGSLRLSCAASGFTFSRYNMNWVRQAPGKGLEWVSSISTSSNYIYYADSVKGRFTFSRDNAKNSLDLQMSGLRAEDTAIYYCTRGWGPFDYWGQGTLVTVSSGGSEGKSSGSGSESKSTGGSDIQMTQSPSSLSASVGDRVTITCRARQSIGTAIHWYQQKPGKAPKLLIKYASESISGVPSRFSGSGSGTDFTLTISSVQPEDFATYYCQQSGSWPYTFGQGTKLEIKEPKSSDKTHTCPPCPAPEAAGGPSVFLFPPKPKDTLMISRTPEVTCVVVSVSHEDPEVKFNWYVDGVEVHNAKTKPREEQYNSTYRVVSVLTVLHQDWLNGKEYKCKVSNKALPAPIEKTISKAKGQPREPQVYVYPPSREEMTKNQVSLTCLVKGFYPSDIAVEWESNGQPENNYKTTPPVLDSDGSFALVSKLTVDKSRWQQGNVFSCSVMHEALHNHYTQKSLSLSPGK
heavy: QVQLQQSGPGLVKPSQTLSLTCAISGDSVSSNRAAWNWIRQSPSRGLEWLGRTYYRSKWYNDYAVSVKSRITINPDTSKNQISLQLNSVTPEDTAVYYCARVRPGIPFDYWGQGTPVTVSSASTKGPSVFPLAPSSKSTSGGTAALGCLVKDYFPEPVTVSWNSGALTSGVHTFPAVLQSSGLYSLSSVVTVPSSSLGTQTYICNVNHKPSNTKVDKKVEPKSCDKTHTCPPCPAPEAAGGPSVFLFPPKPKDTLMISRTPEVTCVVVSVSHEDPEVKFNWYVDGVEVHNAKTKPREEQYNSTYRVVSVLTVLHQDWLNGKEYKCKVSNKALPAPIEKTISKAKGQPREPQVYVLPPSREEMTKNQVSLLCLVKGFYPSDIAVEWESNGQPENNYLTWPPVLDSDGSFFLYSKLTVDKSRWQQGNVFSCSVMHEALHNHYTQKSLSLSPG
light: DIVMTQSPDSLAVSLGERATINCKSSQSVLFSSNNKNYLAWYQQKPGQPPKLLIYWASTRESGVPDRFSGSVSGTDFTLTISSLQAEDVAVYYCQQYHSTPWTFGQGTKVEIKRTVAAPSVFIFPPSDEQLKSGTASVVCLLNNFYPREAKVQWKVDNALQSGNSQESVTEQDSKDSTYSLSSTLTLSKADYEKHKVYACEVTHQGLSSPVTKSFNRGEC
Cytotoxicity, EC50 (T cell-mediated, NCI-H2009-b2m target cells, 72 hr) [1]: 0.0173 nM

B2: HC3B237 (bispecific antibody, human IgG1, kappa, L234A L235A)
scFv: DIQMTQSPSSLSASVGDRVTITCRARQSIGTAIHWYQQKPGKAPKLLIKYASESISGVPSRFSGSGSGTDFTLTISSVQPEDFATYYCQQSGSWPYTFGQGTKLEIKGGSEGKSSGSGSESKSTGGSEVQLVESGGGLVKPGGSLRLSCAASGFTFSRYNMNWVRQAPGKGLEWVSSISTSSNYIYYADSVKGRFTFSRDNAKNSLDLQMSGLRAEDTAIYYCTRGWGPFDYWGQGTLVTVSSEPKSSDKTHTCPPCPAPEAAGGPSVFLFPPKPKDTLMISRTPEVTCVVVSVSHEDPEVKFNWYVDGVEVHNAKTKPREEQYNSTYRVVSVLTVLHQDWLNGKEYKCKVSNKALPAPIEKTISKAKGQPREPQVYVYPPSREEMTKNQVSLTCLVKGFYPSDIAVEWESNGQPENNYKTTPPVLDSDGSFALVSKLTVDKSRWQQGNVFSCSVMHEALHNHYTQKSLSLSPGK
heavy: B1 heavy
light: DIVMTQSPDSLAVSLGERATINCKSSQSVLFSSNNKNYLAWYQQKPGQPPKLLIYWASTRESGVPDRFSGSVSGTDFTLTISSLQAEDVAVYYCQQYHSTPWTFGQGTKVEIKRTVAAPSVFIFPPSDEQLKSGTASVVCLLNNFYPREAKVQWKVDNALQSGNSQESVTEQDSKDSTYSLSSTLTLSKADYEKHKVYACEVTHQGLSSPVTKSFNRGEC
Cytotoxicity, EC50 (T cell-mediated, NCI-H2009-b2m target cells, 72 hr) [1]: 0.133 nM

B3: HC3B236 (bispecific antibody, human IgG1, kappa, L234A L235A)
scFv: QSALTQPASVSGSPGQSITISCTGTSSNIGTYKFVSWYQQHPGKAPKVMIYEVSKRPSGVSNRFSGSKSGNTASLTISGLQAEDEADYYCVSYAGSGTLLFGGGTKLTVLGGSEGKSSGSGSESKSTGGSQVQLQQSGPGLVKPSQTLSLTCAISGDSVFNNNAAWSWIRQSPSRGLEWLGRTYYRSKWLYDYAVSVKSRITINPDTSKNQFSLQLNSVTPEDTAVYYCARGYSSSFDYWGQGTLVTVSSEPKSSDKTHTCPPCPAPEAAGGPSVFLFPPKPKDTLMISRTPEVTCVVVSVSHEDPEVKFNWYVDGVEVHNAKTKPREEQYNSTYRVVSVLTVLHQDWLNGKEYKCKVSNKALPAPIEKTISKAKGQPREPQVYVYPPSREEMTKNQVSLTCLVKGFYPSDIAVEWESNGQPENNYKTTPPVLDSDGSFALVSKLTVDKSRWQQGNVFSCSVMHEALHNHYTQKSLSLSPG
heavy: B1 heavy
light: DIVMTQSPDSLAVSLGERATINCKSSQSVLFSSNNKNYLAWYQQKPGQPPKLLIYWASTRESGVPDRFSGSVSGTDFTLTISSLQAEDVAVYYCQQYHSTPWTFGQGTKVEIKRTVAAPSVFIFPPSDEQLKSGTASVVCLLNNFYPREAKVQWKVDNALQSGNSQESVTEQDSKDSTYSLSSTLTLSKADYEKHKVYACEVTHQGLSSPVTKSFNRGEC
Cytotoxicity, EC50 (T cell-mediated, NCI-H2009-b2m target cells, 72 hr) [1]: 4.54 nM

GeoMean fluorescence (maximum value) [2]: 591000
B4: MHGB668 (antibody, human IgG1, kappa, V domains shown)
VH: QVQLQQSGPGLVKPSQTLSLTCAISGDSVSNNSAAWNWIRQSPSRGLEWLGRTYYRSKWYNDYAVSVKSRITINPDTSKNQFSLQLNSVTPEDTAVYYCARYGSGTLLFDYWGQGTLVTVSS
VL: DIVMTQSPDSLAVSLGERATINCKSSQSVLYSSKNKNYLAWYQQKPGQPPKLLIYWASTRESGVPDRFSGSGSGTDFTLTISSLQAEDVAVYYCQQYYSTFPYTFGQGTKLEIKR
notes: IgG1

GeoMean fluorescence (maximum value) [2]: 528000
EC50 [3]: 1860 nM
Kd [4]: 0.809 nM
koff [4]: 0.000153 s⁻¹
kon [4]: 189000 M⁻¹ s⁻¹
B5: MHGB687 (antibody, human IgG1, kappa, V domains shown)
VH: QLQLQESGPGLVKPSETLSLMCTVSGGSITSSSYYWGWIRQPPGKGLEWIGNIYYSGTTYYNPSLKSRVTISVDTSKNQFSLKLSSVTAADTAVYYCAAGARDFDSWGQGSLVTVSS
VL: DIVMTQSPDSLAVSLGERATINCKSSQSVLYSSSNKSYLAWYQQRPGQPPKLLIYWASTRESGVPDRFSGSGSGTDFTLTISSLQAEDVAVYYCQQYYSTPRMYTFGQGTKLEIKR
notes: IgG1

MFI (n = 2) [5]: 178000
binding result [6]: binds
B6: CD3W245-HL-E.c. (scFv)
scFv: EVQLVESGGGLVKPGGSLRLSCAASGFTFSRYNMNWVRQAPGKGLEWVSSISTSSNYIYYADSVKGRFTFSRDNAKNSLDLQMSGLRAEDTAIYYCTRGWGPFDYWGQGTLVTVSSGTEGKSSGSGSESKSTDIQMTQSPSSLSASVGDRVTITCRARQSIGTAIHWYQQKPGKAPKLLIKYASESISGVPSRFSGSGSGTDFTLTISSLQPEDFATYYCQQSGSWPYTFGQGTKLEIKGPGGQHHHHHHGAYPYDVPDYAS
notes: E. coli supernatant

MFI (n = 2) [5]: 121000
B7: CD3W241-HL-E.C. (scFv)
chain: B6 scFv with K181Y, L210V, G224N

MFI (n = 2) [5]: 154000
binding result [6]: binds
B8: CD3W246-HL-E.c. (scFv)
scFv: B6 scFv with L210V
notes: E. coli supernatant

MFI (n = 2) [5]: 137000
binding result [6]: binds
B9: CD3W238-HL-E.c. (scFv)
scFv: B6 scFv with K181Y, G224N
notes: E. coli supernatant

MFI (n = 2) [5]: 166000
binding result [6]: binds
B10: CD3W244-HL-E.c. (scFv)
scFv: B6 scFv with K181Y, L210V
notes: E. coli supernatant

MFI (n = 2) [5]: 111000
binding result [6]: binds
B11: CD3W243-HL-E.c. (scFv)
scFv: B6 scFv with L210V, G224N
notes: E. coli supernatant

MFI (n = 2) [5]: 126000
binding result [6]: binds
B12: CD3W242-HL-E.c. (scFv)
scFv: B6 scFv with G224N
notes: E. coli supernatant

MFI (n = 2) [5]: 111000
binding result [6]: binds
B13: CD3W247-HL-E.c. (scFv)
scFv: B6 scFv with K181Y
notes: E. coli supernatant

MFI (n = 2) [5]: 66800
binding result [6]: binds
B14: CD3W234-HL-E.c. (scFv)
scFv: EVQLVESGGGLVKPGGSLRLSCAASGFTFSRYNMNWVRQAPGKGLEWVSSISTSSNYIYYADSVKGRFTFSRDNAKNSLDLQMSGLRAEDTAIYYCTRGWGPFDYWGQGTLVTVSSGTEGKSSGSGSESKSTDILLTQSPGILSVSPGERVSFSCRARQSIGTAIHWYQQRTNGSPRLLIKYASESISGIPSRFSGSGSGTDFTLTINSVESEDIADYYCQQSNSWPYTFGGGTKLEIKGPGGQHHHHHHGAYPYDVPDYAS
notes: E. coli supernatant; also called CD3B815-HL-scFV

MFI (n = 2) [5]: 60400
binding result [6]: binds
B15: CD3W248-HL-E.c. (scFv)
scFv: B14 scFv with N224G
notes: E. coli supernatant

EC50 [3]: 1.6 nM
Kd [4]: 0.139 nM
EC50 [7]: 1.6 nM
B16: MHGB738 (antibody, human IgG1, kappa, V domains shown)
VH: QVQLQQSGPGLVKPSQTLSLTCAISGDSVSSNRAAWNWIRQSPSRGLEWLGRTYYRSKWYNDYAVSVKSRITINPDTSKNQISLQLNSVTPEDTAVYYCARVRPGIPFDYWGQGTPVTVSS
VL: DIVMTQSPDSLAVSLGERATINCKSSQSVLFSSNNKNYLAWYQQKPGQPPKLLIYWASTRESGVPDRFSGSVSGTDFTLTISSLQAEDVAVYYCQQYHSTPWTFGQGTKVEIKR
notes: IgG1; also called GL optimized B688

B17: HC3B214 (bispecific antibody, human IgG1, kappa, L234A L235A)
heavy: EVQLVESGGGLVKPGGSLRLSCAASGFTFSRYNMNWVRQAPGKGLEWVSSISTSSNYIYYADSVKGRFTFSRDNAKNSLDLQMSGLRAEDTAIYYCTRGWGPFDYWGQGTLVTVSSASTKGPSVFPLAPSSKSTSGGTAALGCLVKDYFPEPVTVSWNSGALTSGVHTFPAVLQSSGLYSLSSVVTVPSSSLGTQTYICNVNHKPSNTKVDKKVEPKSCDKTHTCPPCPAPEAAGGPSVFLFPPKPKDTLMISRTPEVTCVVVSVSHEDPEVKFNWYVDGVEVHNAKTKPREEQYNSTYRVVSVLTVLHQDWLNGKEYKCKVSNKALPAPIEKTISKAKGQPREPQVYVYPPSREEMTKNQVSLTCLVKGFYPSDIAVEWESNGQPENNYKTTPPVLDSDGSFALVSKLTVDKSRWQQGNVFSCSVMHEALHNHYTQKSLSLSPG
light: DIQMTQSPSSLSASVGDRVTITCRARQSIGTAIHWYQQKPGKAPKLLIKYASESISGVPSRFSGSGSGTDFTLTISSVQPEDFATYYCQQSGSWPYTFGQGTKLEIKRTVAAPSVFIFPPSDEQLKSGTASVVCLLNNFYPREAKVQWKVDNALQSGNSQESVTEQDSKDSTYSLSSTLTLSKADYEKHKVYACEVTHQGLSSPVTKSFNRGEC
scFv: not shown
Cytotoxicity, EC50 (T cell-mediated, NCI-H2009-b2m target cells, 72 hr) [1]: 0.138 nM
